Article PMC2794155
Read-outs that look alike come from different tables or passages of the source.

Key:
[1] = molecular target: T1, NHP6A (Saccharomyces cerevisiae RKY3032, UniProt P11632 1-93); experiment: EMSA
[2] = molecular target: T2, MSH2;MSH6 (Saccharomyces cerevisiae;Saccharomyces …, UniProt P25847;Q03834 1-964;1-1242, |); experiment: EMSA
[3] = molecular target: MSH2;MSH6 F337A (Saccharomyces cerevisiae;Saccharomyces …, UniProt P25847;Q03834 1-964;1-1242, |F337A); experiment: EMSA
[4] = molecular target: T1, NHP6A; experiment: EMSA; remark: listed apart in the source
[5] = molecular target: NHP6A;MSH2;MSH6 (Saccharomyces cerevisiae …, UniProt P11632;P25847;Q03834 1-93;1-964;1-1242, ||); experiment: EMSA supershift
Chain of NHP6A;MSH2;MSH6 (P11632 whole entry, chain 1 of 3): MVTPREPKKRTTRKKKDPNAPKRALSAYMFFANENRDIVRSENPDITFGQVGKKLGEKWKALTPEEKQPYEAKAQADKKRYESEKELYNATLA
Chain of NHP6A;MSH2;MSH6 (P25847 whole entry, chain 2 of 3): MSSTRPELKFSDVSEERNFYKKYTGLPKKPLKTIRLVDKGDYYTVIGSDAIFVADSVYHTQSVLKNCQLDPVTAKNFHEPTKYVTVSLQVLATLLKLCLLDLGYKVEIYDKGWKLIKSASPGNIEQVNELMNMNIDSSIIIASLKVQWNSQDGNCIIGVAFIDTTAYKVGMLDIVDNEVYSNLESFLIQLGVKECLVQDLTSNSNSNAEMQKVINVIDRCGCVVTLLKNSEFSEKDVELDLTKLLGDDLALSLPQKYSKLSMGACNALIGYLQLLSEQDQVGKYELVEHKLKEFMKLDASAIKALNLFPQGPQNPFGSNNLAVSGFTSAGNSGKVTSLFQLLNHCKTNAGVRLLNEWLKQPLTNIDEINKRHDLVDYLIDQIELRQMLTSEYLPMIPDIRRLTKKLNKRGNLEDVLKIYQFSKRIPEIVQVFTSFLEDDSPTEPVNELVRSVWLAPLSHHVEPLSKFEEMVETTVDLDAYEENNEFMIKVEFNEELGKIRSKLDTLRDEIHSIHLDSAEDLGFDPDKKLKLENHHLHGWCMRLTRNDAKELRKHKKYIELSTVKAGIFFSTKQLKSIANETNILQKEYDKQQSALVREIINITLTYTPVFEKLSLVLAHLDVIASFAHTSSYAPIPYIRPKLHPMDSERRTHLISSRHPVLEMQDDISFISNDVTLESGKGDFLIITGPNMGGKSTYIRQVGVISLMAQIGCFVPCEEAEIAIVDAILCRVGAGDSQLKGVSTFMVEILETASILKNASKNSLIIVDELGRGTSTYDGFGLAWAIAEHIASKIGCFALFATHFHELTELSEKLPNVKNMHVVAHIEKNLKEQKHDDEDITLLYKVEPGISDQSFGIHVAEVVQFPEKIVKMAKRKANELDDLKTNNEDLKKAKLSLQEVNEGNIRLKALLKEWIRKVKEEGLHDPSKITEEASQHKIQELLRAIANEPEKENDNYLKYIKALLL
Chain of NHP6A;MSH2;MSH6 (Q03834 whole entry, chain 3 of 3): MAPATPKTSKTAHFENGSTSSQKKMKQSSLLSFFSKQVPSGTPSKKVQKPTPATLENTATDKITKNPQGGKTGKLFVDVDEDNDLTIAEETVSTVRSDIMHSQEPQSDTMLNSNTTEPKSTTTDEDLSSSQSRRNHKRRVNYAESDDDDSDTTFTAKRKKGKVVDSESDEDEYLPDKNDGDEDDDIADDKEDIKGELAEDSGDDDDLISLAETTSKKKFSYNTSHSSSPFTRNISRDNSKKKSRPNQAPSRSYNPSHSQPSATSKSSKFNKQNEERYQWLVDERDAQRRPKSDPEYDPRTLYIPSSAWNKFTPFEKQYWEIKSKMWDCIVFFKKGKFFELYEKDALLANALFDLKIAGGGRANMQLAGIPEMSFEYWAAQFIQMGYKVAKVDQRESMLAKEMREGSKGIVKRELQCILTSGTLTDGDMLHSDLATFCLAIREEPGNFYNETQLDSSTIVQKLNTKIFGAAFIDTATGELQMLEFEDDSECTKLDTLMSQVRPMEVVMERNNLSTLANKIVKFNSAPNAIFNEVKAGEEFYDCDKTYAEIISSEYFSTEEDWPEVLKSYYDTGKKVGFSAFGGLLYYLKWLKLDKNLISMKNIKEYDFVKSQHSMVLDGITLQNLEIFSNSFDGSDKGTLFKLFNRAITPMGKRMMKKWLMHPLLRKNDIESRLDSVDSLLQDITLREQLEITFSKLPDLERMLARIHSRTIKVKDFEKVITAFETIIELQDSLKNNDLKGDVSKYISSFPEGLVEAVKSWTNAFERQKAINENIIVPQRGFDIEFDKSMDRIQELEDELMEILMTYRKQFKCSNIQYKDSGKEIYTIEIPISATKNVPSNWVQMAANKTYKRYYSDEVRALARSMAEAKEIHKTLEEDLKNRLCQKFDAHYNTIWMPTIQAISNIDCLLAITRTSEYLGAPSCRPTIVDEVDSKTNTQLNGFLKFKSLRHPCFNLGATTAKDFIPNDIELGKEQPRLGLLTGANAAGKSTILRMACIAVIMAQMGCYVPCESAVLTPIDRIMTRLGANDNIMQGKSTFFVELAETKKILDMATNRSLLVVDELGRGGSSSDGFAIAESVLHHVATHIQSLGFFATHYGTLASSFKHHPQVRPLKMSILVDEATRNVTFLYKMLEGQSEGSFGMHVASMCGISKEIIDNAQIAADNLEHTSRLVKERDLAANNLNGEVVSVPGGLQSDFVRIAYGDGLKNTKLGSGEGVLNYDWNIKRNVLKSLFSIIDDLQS

[6] = molecular target: T2, MSH2;MSH6; experiment: EMSA; remark: listed apart in the source

T1 sequence (P11632 whole entry): as the sequence (P11632 whole entry, chain 1 of 3) above
T2 sequence (P25847 whole entry, chain 1 of 2): as the sequence (P25847 whole entry, chain 2 of 3) above
T2 sequence (Q03834 whole entry, chain 2 of 2): as the sequence (Q03834 whole entry, chain 3 of 3) above
Chain of MSH2;MSH6 F337A (P25847 whole entry, chain 1 of 2): as the sequence (P25847 whole entry, chain 2 of 3) above
Chain of MSH2;MSH6 F337A (Q03834 whole entry F337A, chain 2 of 2): as the sequence (Q03834 whole entry, chain 3 of 3) above, with F337A counted along it

Row | Binder | binding result [1] | binding result [4] | further results
1 | 37-mer G:C homoduplex (A/T in figures) (dsDNA) DNA 1: ATTTCCTTCAGCAGATAGGAACCATACTGATTCACAT DNA 2: ATGTGAATCAGTATGGTTCCTATCTGCTGAAGGAAAT | binds | – | –
2 | 37-mer G:T heteroduplex (dsDNA) DNA 1: ATTTCCTTCAGCAGATAGGAACCATACTGATTCACAT DNA 2: ATGTGAATCAGTATGGTTTCTATCTGCTGAAGGAAAT | binds | – | –
3 | 50-mer T:A homoduplex (dsDNA) DNA 1: CTCATTCAGCATAACTTGATTTCTTTCAGCAGATAGAAACCATACTGATT DNA 2: AATCAGTATGGTTTCTATCTGCTGAAAGAAATCAAGTTATGCTGAATGAG | – | binds | binding result [2]: binds; binding result [3]: no binding
4 | 50-mer T:G heteroduplex (dsDNA) DNA 1: CTCATTCAGCATAACTTGATTTCTTTCAGCAGATAGAAACCATACTGATT DNA 2: AATCAGTATGGTTTCTATCTGCTGAAGGAAATCAAGTTATGCTGAATGAG | – | binds | binding result [5]: binds; binding result [6]: binds
